Laboratory results published in patent US20240150417A1 (CELLEMEDY, published 2024).

Biological target: T1, human transferrin receptor (human, UniProt P02786 89-760, limits assumed)
T1 construct: also called TfR Human; transferrin receptor 1
Assay: MST (Monolith NT.115), dye-labelled protein, receptor titrated
Description: First, 100 μl of dye that specifically binds to a hexa-His tag (RED-tris-NTA 2nd Generation Dye) was prepared at a concentration of 50 nM, along with 100 μl of the produced protein at a concentration of 200 nM, followed by mixing the same and incubating at room temperature for 30 minutes. The incubated product was centrifuged at 13000 rpm for 10 minutes at 4° C. by a centrifuge, thus to separate the supernatant and obtain a dye-labeled protein.
Then, 25 μl of 9.65 μM transferrin receptor was added to the 1st PCR tube; 10 μl of PBS-T (PBS+0.5% tween 20) buffer was added to 2nd to 16th PCR tubes; 10 μl of transferrin in the 1st PCR tube was transferred to the 2nd PCR tube; and 10 μl was again transferred from the 2nd PCR tube to the 3rd PCR tube. Likewise, this procedure was continued up to the 16th tube thus to perform ½ dilution in a sequential order so that each of the 2nd to 16th PCR tubes becomes 20 μl.
Thereafter, 10 μl of the dye-labeled protein was added to each PCR tube, and the reaction was performed at room temperature for 1 hour.

T1 sequence (P02786 89-760 limits assumed): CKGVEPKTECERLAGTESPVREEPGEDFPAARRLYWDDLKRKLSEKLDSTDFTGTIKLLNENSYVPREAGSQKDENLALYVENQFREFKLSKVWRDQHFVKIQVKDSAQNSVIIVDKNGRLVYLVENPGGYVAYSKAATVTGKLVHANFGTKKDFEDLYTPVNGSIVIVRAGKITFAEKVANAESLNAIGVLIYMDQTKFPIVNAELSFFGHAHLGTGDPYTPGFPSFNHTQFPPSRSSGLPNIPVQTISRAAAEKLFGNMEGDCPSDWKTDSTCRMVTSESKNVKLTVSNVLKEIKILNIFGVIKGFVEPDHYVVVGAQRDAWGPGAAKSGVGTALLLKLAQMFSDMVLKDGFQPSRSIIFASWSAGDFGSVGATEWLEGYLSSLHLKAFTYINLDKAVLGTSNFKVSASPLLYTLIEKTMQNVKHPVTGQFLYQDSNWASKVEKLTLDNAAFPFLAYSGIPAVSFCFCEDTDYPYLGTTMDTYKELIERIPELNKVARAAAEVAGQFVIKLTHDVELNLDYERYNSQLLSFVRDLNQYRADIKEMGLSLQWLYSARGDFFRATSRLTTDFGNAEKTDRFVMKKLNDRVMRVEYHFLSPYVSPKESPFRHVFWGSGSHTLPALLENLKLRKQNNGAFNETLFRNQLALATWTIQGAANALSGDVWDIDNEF

| Binder | Kd [nM] |
| --- | --- |
| Ein-gp100-huHF (other, Self-assembled 24-mer; built from the site; also called gp100-huHF, TSA insertion site Ein (the middle of E helix)) MHHHHHHEFTTASTSQVRQNYHQDSEAAINRQINLELYASYVYLSMSYYFDRDDVALKNFAKYFLHQSHEEREHAEKLMKLQNQRGGRIFLQDIKKPDCDDWESGLNAMECALHLEKNVNQSLLELHKLATDKNDPHLCDFIETHYLNEQVKAIKELGDHVTNLRKMGAPESGLAEYLFDKHKVPRNQDWLTLGDSDNES | 6.28 |
| Din-gp100-huHF (other, One monomer given; 24 monomers self-assemble. His tag carried RED-tris-NTA dye in MST., Self-assembled 24-mer; built from the site; also called gp100-huHF, TSA insertion site Din (the middle of D helix)) MHHHHHHEFTTASTSQVRQNYHQDSEAAINRQINLELYASYVYLSMSYYFDRDDVALKNFAKYFLHQSHEEREHAEKLMKLQNQRGGRIFLQDIKKPDCDDWESGLNAMECALHLEKNVNQSLLELHKLATDKNDPHLCDFIETHYLNEQVKAIKELGDHVTNLRKVPRNQDWLKMGAPESGLAEYLFDKHTLGDSDNES | 29.3 |
